Measurements published in paper PMC13649775 (Nature Communications, 2026).
Each block holds one binder with its values, some of them ahead of it. Where no end group is shown, it is not given here.

Target: T1, LigIV DBD (Met1-Ile240) (UniProt P49917 1-240)
T1 construct: source: E. coli Rosetta2 (DE3), purified (Ni-NTA, TEV, SEC); not shown: His tag, N-terminal, cleaved
T1 sequence (looked up): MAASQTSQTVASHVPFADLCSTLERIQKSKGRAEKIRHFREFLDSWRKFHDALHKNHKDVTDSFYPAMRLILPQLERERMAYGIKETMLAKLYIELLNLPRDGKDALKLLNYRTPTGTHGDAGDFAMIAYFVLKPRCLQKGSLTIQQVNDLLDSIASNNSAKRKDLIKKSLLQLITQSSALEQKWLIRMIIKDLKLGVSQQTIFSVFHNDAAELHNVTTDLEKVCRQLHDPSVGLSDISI
Test: fluorescence polarisation; 25 nM FAM-labeled peptide constant, LigIV DBD 5 nM–200 μM; 15 mM Tris pH 7.5, 65 mM NaCl, 0.7 mM βME; 20 min
Conditions: both partners purified

Kd: 1.5 to 4 µM
B1: FAM-labeled Artemis 486-496 peptide (peptide)
peptide: {FAM}-VPQWEVFFKRN
notes: Artemis, residues 486-496; also called Artemis peptide; source: synthetic peptide (GenScript)

Kd: 29 to 30 µM
B2: FAM-labeled Ku70 1-11 peptide (peptide)
peptide: {FAM}-MSGWESYYKTE
notes: Ku70, residues 1-11; The results call the modelled stretch 'Ku70 CTR', but the peptide is residues 1-11; also called Ku70 peptide; source: synthetic peptide (GenScript)
